Variants at the floor of the assay were thinned out.
B1: TPR 5TU (parent)
chain: GGAUCUUCUCGAUCUAACAAAAAAGACAAAUCUGCCACAAAGCUUGAGAGCAUCUUCGGAUGCAGAGGCGGCAGCCUUCGGUGGCGCGAUAGCGCCAACGUUCUCAACUAUGACACGCAAAACGCGUGCUCCGUUGAAUGGAGUUUAUCAUG

Variants of: B1
Experiment: polymerase ribozyme fitness, log enrichment relative to wild type (log ratio); higher = more active; in vitro selection for triplet polymerase activity
Outline: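 A single round of triplicate in vitro selection, including frozen incubation at −7 °C, was applied to PCR-built, transcribed mutant libraries of each subunit of a heterodimeric triplet polymerase ribozyme. Illumina sequencing of input and output libraries retained genotypes with ≥10 input reads and ≥1 read per output. Fitness is the base-2 logarithm of genotype enrichment divided by wild-type enrichment, from inverse-variance-weighted replicate averages.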

Point of comparison: A49U G50A G84A C95G U146C, “polymerase ribozyme fitness (log ratio)” value -1.2. Against it:
- A49U U56G C85U G86U U102C — lower, ≤ -4.2
- A49C U61G C99G G124A — lower, ≤ -4.2
- G48C G92U — lower, -1.69
- A49C A97G U148C — lower, ≤ -4.2
- A49G A60U — lower, -1.62
- A49G G50A G140U — lower, -3.96
- A49U A142C — lower, -1.43
- A49C C69G C85A A120C C125U — lower, ≤ -4.2
- G48U A52U C93A C95U U145A — lower, ≤ -4.2
- G48C G59C A73G C76U C96U U101C — lower, -3.78
- G48C U55A A122U — higher, 0.121
- A49U A73G G81C C85U — lower, -2.64
- A49C C76A — lower, ≤ -4.2
- A49G G50A U55A U146C — lower, -1.98
- G48U G83A U134A G136A — lower, -2.44
- A49C G81A G112A C114U G128A G133A — lower, ≤ -4.2
- A49C U55A G143C — lower, ≤ -4.2
- G48C U53A G74C C85U C99U A119G A120G — lower, ≤ -4.2
- G48C G58C C63A G74C G81A A89U A137C — lower, ≤ -4.2
- A49G C57U C75A U146G — lower, ≤ -4.2
- A49C U77G A121C U148A — lower, ≤ -4.2
- A49C A98G — lower, ≤ -4.2
- A49C C93A — lower, ≤ -4.2
- A49C C57U U101G — lower, -2.69
- A49C A106G — lower, -4.12
- A49G C93G U102G A106G — lower, ≤ -4.2
- A49U C85G A115C — lower, -3.64
- G48U A73G A122C U146C — higher, -0.965
- A49C C51G — lower, -4.14
- G48C A73U U135G — lower, ≤ -4.2
- G48C C63U A142G — within 0.2 log units, -1.03
- G48A G59C C63U G86C — lower, -3.98
- A49C C103G A110C — lower, ≤ -4.2
- A49C A52C A66G G86C A119G — lower, ≤ -4.2
- A49U A52C — higher, -0.692
- G48C C54A A73U C99A A150C — lower, ≤ -4.2
- A49G C76U A89C C96A — lower, -2.23
- G48C A115G G133A — lower, -3.85
- A49C G58C A66G C93G A107U A120U — lower, ≤ -4.2
- A49G U55A C79U G92U C95A G140A — lower, ≤ -4.2
- A49G A52G G68U C69G G100C — lower, ≤ -4.2
- A49G C75G U77A U82C C93G C125U U134C U146C A147U — lower, ≤ -4.2
- A49U C93U — within 0.2 log units, -1.38
- A49C U53A G88C G141C — lower, ≤ -4.2
- A49C C54U U55A A91U C108U G152A — lower, ≤ -4.2
- A49G A73G — higher, -0.67
- A49C A52G C85U U101G U127G U144G — lower, ≤ -4.2
- A49C G68A C96U A98C C108G — lower, ≤ -4.2
- A49C U53A G86U A115G — lower, ≤ -4.2
- A49G A97G — within 0.2 log units, -1.11
- A49U G50C G65C A97U U101G C129G G143U — lower, ≤ -4.2
- G48C C54U G58C C87U C123U — within 0.2 log units, -1.05
- A49C G94C — lower, -4.16
- A49U G83A U145A — within 0.2 log units, -1.1
- G48C C63U C69U G74A C93A U102G A107G — lower, ≤ -4.2
- A49G A52G U55A G67A A107U G133C A137G U139C — lower, ≤ -4.2
- A49C A52C C57A A91U C96G G112A G117U G143C A150G — lower, ≤ -4.2
- A49C C87U — lower, -4.01
- G48C U53C C87U U145C — lower, -2.69
- A49C C51U G133A G143U — lower, ≤ -4.2
- A49G G81C A91G A98U — lower, -2.95
- G48C U56C A73G C118A — lower, -2.46
- A49C A52G G58C G84A C131G G133C U145A — lower, ≤ -4.2
- G48A G136U — lower, -2.5
- A49C G81U G84U C125G G141C A150U — lower, ≤ -4.2
- A49G G50C C95U A98G U145G — lower, -2.77
- A49G G83U — within 0.2 log units, -1.22
- A49G G84U U145G — lower, -3.09
- A49C C75G G83U G141A U146A — lower, ≤ -4.2
- G48C C96A U111A A138C — lower, ≤ -4.2
- A49C U55A A66U C72A C85U — lower, ≤ -4.2
- A49U G58C — higher, -0.846
- A49C A52G G83A U102G U134G — lower, -3.78
- A49U U53A A64G G84U U90C C96A A97G G124U G140A — lower, ≤ -4.2
- A49G A52C G59A G84A G94U C103U — lower, ≤ -4.2
- A49G G70A G140U — lower, ≤ -4.2
- A49C A52U A138U — lower, ≤ -4.2
- G48C C99U — lower, -1.72
- G48C U55A — higher, -0.498
- A49G C105U A113G A115C A147U — lower, ≤ -4.2
- G48A G86A A89C G94A U151G — lower, ≤ -4.2
- A49U U53A G86A C87A A89G C114U — lower, ≤ -4.2
- A49G A122U G124U — higher, -0.811
- G48U G92U A121C A150C — lower, ≤ -4.2
- G48A G133U — lower, -3.81
- A49U G136A G141A — higher, -0.805
- A49C G71C U101G A137U A150U — lower, ≤ -4.2
- A49C G62U A107U G152A — lower, ≤ -4.2
- G48C C51U C69A C116G — lower, ≤ -4.2
- A49C G92U U127C — lower, ≤ -4.2
- G48A G59U C87U A97U G136A — lower, -1.99
- A49U G86A C87G A106C G136U A150C — lower, ≤ -4.2
- G48A G59U G94A C114A C125A — lower, ≤ -4.2
- A49C A52C C54A G74U C76G C125U — lower, ≤ -4.2
- A49U U55G C103A U111C A138G G152A — lower, ≤ -4.2
- G48U C85A U127C — lower, -2.74
- A49G U55G C57U A60G C75G C76U U90A U102C U134G G140C — lower, ≤ -4.2
- G48C G86U C95A C96G G117C G136A — lower, ≤ -4.2
- G48U G126U — higher, -0.307
- A49C A89U G92C U104G U127G A142G — lower, ≤ -4.2
- A49U C116G C149U — lower, -4.18
- G48C C57A C75G G83U A106G A107G A113U — lower, ≤ -4.2
- A49C U56A G88U A122C C125U — lower, ≤ -4.2
- A49C G143A — lower, -4.14
- A49G G94A U127C — lower, -3.23
- G48U A98G — higher, -0.0311
- A49U A110U G117U — lower, ≤ -4.2
- G48C A98G U101C U144A A147U — higher, -0.0628
- G48C C87G G88C A91G A119U U134G — lower, ≤ -4.2
- A49G G84A — higher, -0.52
- A49C G68A U102G A107G — lower, ≤ -4.2
- G48C A49G A113G — lower, ≤ -4.2
- A49C C72A C108A U135G — lower, ≤ -4.2
- G48A G67A U77C A97U U145G A150U — lower, ≤ -4.2
- A49C U82A G86A G126A — lower, ≤ -4.2
- A49G A52C C95U C96A C99A — lower, ≤ -4.2
- G48U A142U — lower, -2.92
- G48A U61A A91C C131A U139C — lower, ≤ -4.2
- G48A G92U C123A — higher, -0.538
- A49U A119C U127A U134A — lower, ≤ -4.2
- G48U C75G G92U — lower, ≤ -4.2
- A49U G58A U102G A122U — higher, -0.217
- A49U G59A A115U A119C — lower, -3.36
- G48U G59C G81A A97U — lower, -1.88
- G48C A49G U55G A66U C85U A97C G126C — lower, ≤ -4.2
- A49C G68C G81C C93A G126A — lower, ≤ -4.2
- A49U A66G G80C G84U U102G — lower, ≤ -4.2
- G48C C125G — higher, -0.571
- G48C C96U A110G — lower, ≤ -4.2
- A49C C79U U151G — lower, ≤ -4.2
- G48A G83C — lower, -1.78
- G48C U53G — lower, -3.59
- G48A U101G — lower, -2.26
- G48C A49C C63U G86A C149A — lower, ≤ -4.2
- A49U U53A G92U C116A — within 0.2 log units, -1.33
- A49G C85G C93U — lower, ≤ -4.2
- G48C C57G G67U C85A C93A C96U G140C — lower, ≤ -4.2
- A49G C54A C118A — lower, -3.25
- A49G U55A A73G — lower, -3.1
- A49C G94C U104G — lower, ≤ -4.2
- G48C U145G — higher, -0.0374
- A49G C95U — higher, -0.995
- A49C C79G G94C — lower, ≤ -4.2
- G48U C118G — higher, -0.339
- A49G G62U C63U C96A A122U — lower, -3.19
- G48C G58A A91G — lower, -3.21
- A49U C69G C75A U90G — lower, ≤ -4.2
- A49G G140C — lower, -3.88
- A49G G140A — lower, -3.77
- A49U C96G — higher, -0.972
- G48C U55A A107U U111G — lower, ≤ -4.2
- G48A U55A C57G A66U G83C U90A C108U G124U — lower, ≤ -4.2
- G48C G94A — higher, -0.224
- G48U G84U — lower, -2.01
- A49C U53A A106G — lower, ≤ -4.2
- A49C A66C G81C G83U C99U U101G C108U — lower, ≤ -4.2
- A49C C93A C103G G117U C149G — lower, ≤ -4.2
- A49U C54G U55A G59A A60G U90G A106U G124C — lower, ≤ -4.2
- G48C C51U C85U C129A U145C — lower, ≤ -4.2
- A49G C96U — higher, -0.233
- A49G C96G — lower, -1.61
- A49C A89U A138U — lower, ≤ -4.2
- A49C U109G G152U — lower, -4.18
- A49C C51U A52C G62A G70A G84A A106G A115G — lower, ≤ -4.2
- G48C C85U G94U C96U U144C — lower, -3.25
- A49C U56A A60U — lower, ≤ -4.2

Source: the RNAGym collection of RNA variant scans (doi:10.1073/pnas.2313332121)
